The results in this text go back to patent publication US8450054B2, “Modified Luciola cruciata luciferase gene and protein” (Marker Gene Technologies, Inc., priority 2008, dated 2013).

Data set [1] is described as follows: Thermal stability of modified Luciola cruciata luciferase protein versus wild type protein (residual luminescence of cell lysates after incubation). The settings on record: for stability of the protein relative to wild type: 37° C. The protocol:
(§1) Transfected NIH 3T3 cells prepared in Example 4 were lysed using a lysis buffer comprised of 25 mM Tris-phosphate (pH 7.8), containing 10% glycerol, 1% Triton X-100, 1 mg/ml BSA, 2 mM EGTA and 2 mM DTT. Cells were washed with 1× Phosphate Buffered Saline, and lysis buffer (1 mL) was added to surface of plate. Plate was incubated for 30 mins, and lysate was collected. Additionally, NIH 3T3 cells were transfected with pSV40-GL3, a construct containing wild type luciferase from Photinus pyralis, as per the method in Example 4 and lysed using the above method. As a negative control, untransfected NIH 3T3 cells were also lysed by the above method.
(§2) Cell lysates were diluted using lysis buffer, and added in triplicate to wells of a solid white 96-well plate (Costar). Added to cell lysates was a reagent containing 1 mM D-luciferin and 2 mM ATP in a buffer comprised of 25 mM Glycylglycine, 15 mM MgSO4, 4 mM EDTA, 15 mM Potassium phosphate pH 7.8, 1 mM DTT, and 1 mM Coenzyme A.
(§3) Luminescence was recorded using a Perkin-Elmer HTS7000 Plus Bio Assay Reader (200 ms integration time).
Cell lysates from NIH 3T3 cells transfected with pDC99 and pSV40-GL3 (transfected according to method in Example 4), as well as untransfected cells were prepared as described in Example 5a. Luminescence of each sample was recorded as described in Example 5a to obtain a baseline value of enzyme activity. Portions of each sample were then incubated in water baths at 37° C., 42° C., and 55° C. A portion of each sample was also incubated at ambient room temperature (25° C.). At 1 hour and 2 hour intervals, aliquots of each temperature-incubation were removed and assayed for activity using the method described in Example 5a.

The subject of another data set is NIH 3T3 cells. Description: Luciferase expression levels in transfected mammalian cells (luminescence of lysates). It counts as cell-based, murine. The settings on record: mammalian cell systems. On the procedure:
NIH 3T3 cells (murine […] fibroblasts) were grown to 80% confluence in 100 mm tissue culture plates. Cells were transfected with either pDC57 or pDC99 using Lipofectamine and PLUS reagents (Invitrogen).
as §1, §2, §3

B1: modified luciferase: Luciola cruciata luciferase with Ser to Tyr change at position 286, amino acid sequence SEQ ID NO:4, encoded by codon optimized gene SEQ ID NO:3 (protein, listed as Luciola cruciata)
chain: MENMENDENIVVGPKPFYPIEEGSAGTQLRKYMERYAKLGAIAFTNAVTGVDYSYAEYLEKSCCLGKALQNYGLVVDGRIALCSENCEEFFIPVIAGLFIGVGVAPTNEIYTLRELVHSLGISKPTIVFSSKKGLDKVITVQKTVTTIKTIVILDSKVDYRGYQCLDTFIKRNTPPGFQASSFKTVEVDRKEQVALIMNSSGSTGLPKGVQLTHENTVTRFSHARDPIYGNQVSPGTAVLTVVPFHHGFGMFTTLGYLICGFRVVMLTKFDEETFLKTLQDYKCTYVILVPTLFAILNKSELLNKYDLSNLVEIASGGAPLSKEVGEAVARRFNLPGVRQGYGLTETTSAIIITPEGDDKPGASGKVVPLFKAKVIDLDTKKSLGPNRRGEVCVKGPMLMKGYVNNPEATKELIDEEGWLHTGDIGYYDEEKHFFIVDRLKSLIKYKGYQVPPAELESVLLQHPSIFDAGVAGVPDPVAGELPGAVVVLESGKNMTEKEVMDYVASQVSNAKRLRGGVRFVDEVPKGLTGKIDGRAIREILKKPVAKM
For B1, the “stability of the protein relative to wild type” value in data set [1] (after 1 hour) is on record as over 100 fold; in data set [1] (after 2 hours), over 1000 fold. For the same molecule, the “thermostability compared with wild-type protein” value in data set [1] (room temperature) is given as “greater thermostability”. The “expression level compared to native luciferase” value in the data set on NIH 3T3 cells is recorded as “higher expression levels”.
